The values that follow come from the supplement of paper PMC9170038.

For the data set, the system named is MS2 coat protein. The data set can be described thus: apparent KD of MS2 coat protein; designed switch direction (-1 OFF switch, 1 ON switch): -1; higher = weaker reporter binding. The method in brief: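 Transcription of designed RNA switches on Illumina chips was done by stalled E. coli RNA polymerase. SNAP-549-labelled MS2 coat protein was then titrated in doubling steps from 0.7 or 1.5 nM to 3 µM, with steps of 0.8–1.5 h at the lowest and 10–20 min at the highest concentration. The per-design median over clusters of curve-fitted normalised fluorescence is reported as apparent KD.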

The mark [1] stands for this setting: Eterna round: R95, input ligand: FMN 200 uM.
Where [2] appears, read: Eterna round: R95, input ligand: microRNA oligo, concentration not stated.
[3] abbreviates: Eterna round: R95, input ligand: none.
Where [4] appears, read: input ligand: microRNA oligo, concentration not stated.

With “CUAAUGAUAGGAUAUACAGCGAGAGUCGACUCUGGUGCUCAACAUGAGGAUCACCCAUGUAGAAGGAUCAGACC [EX2 C.23] (Eterna round: R97, puzzle: Exclusion 2)”, the “apparent KD of MS2 coat protein” value reads like this: (input ligand: FMN 200 uM) 35.9 nM; (input ligand: none) 18.6 nM.

As to “CUAAUUUGUGUGAGGAUAUGGCGACAGGAGACUAGCCAGAAGGUACAUGAGGAUCACCCAUGUAAGGUCCUCUC [Eternabot (L1) Solution 86] (Eterna round: R97, puzzle: Brourd's mod of Exclusion 4)”, the “apparent KD of MS2 coat protein” value is, setting by setting: (input ligand: FMN 200 uM) 16.8 nM; (input ligand: none) 16.3 nM.

“CUAGAUCUUCGGAUCUAGUACAUGAGGAUCACCCAUGUUACGAGCUGAUUUUCAUACAAGCUUUUUGCUCGUCUUAU [Sensor v3 - Turn-off variant 1 - 29] (puzzle: Sensor v3, turn-off variant 1)”: the “apparent KD of MS2 coat protein” value under setting [1] was 38.1 nM, the “apparent KD of MS2 coat protein” value under setting [2] is 297 nM and the “apparent KD of MS2 coat protein” value under setting [3] is 41.3 nM.

Consider “CUAGCGAUUGUAGGAUAUCGGACUGUUUCAGUCUGAGAAGGACAUGAGGAUCACCCAUGUGAUGCUACGUGAGUAGCACGCUAG [JL ENG1 3.85] (Eterna round: R96, puzzle: Exclusion NG 1)”, for which the “apparent KD of MS2 coat protein” value stood at 76.9 nM (input ligand: FMN 200 uM), 20 nM under setting [4] and 30.5 nM (input ligand: none).

“CUAGUAUAUCAGGAUAUGAUAGCUUAUAGCAUAUCAGAAGGGAUUACAUGAGGAUCACCCAUGUGAAGGGAUGA [eternacac ex6r4 sub17] (Eterna round: R97, puzzle: Exclusion 6)”: the “apparent KD of MS2 coat protein” value reads like this: (input ligand: FMN 200 uM) 331 nM; (input ligand: none) 275 nM.

In the case of “CUAGUCCGAGGAUAUAUUAAGUGAAACAUGAGGAUCACCCAUGUUAUUUAAUGGAAAUAAAUAGAAGGCGGACUAG [Mat - Exclusion 5 - JL mod - D56] (puzzle: Exclusion 5)”, the “apparent KD of MS2 coat protein” value amounted to 27.2 nM under setting [1], 34.6 nM under setting [2] and 51.6 nM under setting [3].

Take “CUAUUACGAGGAUAUGAUUUAAAUAACAUGAGGAUCACCCAUGUUUUUACGUUAUUUUAUUUAGAAGGCGUAUAGU [JR_E5_Sub029] (puzzle: Exclusion 5)”: the “apparent KD of MS2 coat protein” value under setting [2] worked out at 42 nM.

As to “CUAUUACGAGGAUAUGAUUUAAAUAACAUGAGGAUCACCCAUGUUUUUACGUUAUUUUGUUUAGAAGGCGUAUUGU [JR_E5_Sub027] (puzzle: Exclusion 5)”, under setting [2], the “apparent KD of MS2 coat protein” value came out at 55.5 nM.

On to “CUCAAGUGAGGAUAUAUACUUCCAUCAUUUGAGAUAGAAGUAUAGAAGGCACAUGAGGAUCACCCAUGUAUAAC [Lamaanan] (puzzle: Exclusion 4)”, for which the “apparent KD of MS2 coat protein” value under setting [2] came to 99.2 nM.

For the sequence “CUCAUGUGAGGAUAUGUGAUCAACCUUCUGUAUAGAUGAUUACAGAAGGCACAUGAGGAUCACCCAUGUAGAUC [Ex4 - 3 - 22] (puzzle: Exclusion 4)”, the “apparent KD of MS2 coat protein” value under setting [2] came out at 91.6 nM.

For the sequence “CUCCUACAUGAGGAUCACCCAUGUCAGGAUAUCUCAGUGGCACCUAAAUUCGCCACCCAGAGAAGGGACGUGCA [Erralaorge] (puzzle: Exclusion 1)”, under setting [2], the “apparent KD of MS2 coat protein” value came out at 13.4 nM.

As for “CUCCUCAUGGCGCCUAAACACAUGAGGAUCACCCAUGUACAGGCUUUUCGCCGUCUUAUAAUAAAACCGAGGAUGCG [Soislebice] (puzzle: Sensor v3, turn-off variant 1)”, the “apparent KD of MS2 coat protein” value stood at 45.6 nM under setting [1], 300 nM under setting [2] and 47.8 nM under setting [3].

Turning to “CUCCUCGUGGCGCCUAAACACAUGAGGAUCACCCAUGUACAGGCUUUUUGCCGUCUUAUAAUAAAACCGAGGAGGCG [Arce] (puzzle: Sensor v3, turn-off variant 1)”, the “apparent KD of MS2 coat protein” value by setting is: under setting [1], 13.7 nM; under setting [2], 22.1 nM; under setting [3], 15.9 nM.

With “CUCGAGUGAGGAUAUAUACUUCCAUCAUUUGAGAGAGAAGUAUAGAAGGCACAUGAGGAUCACCCAUGUAUAAA [Rierreis] (puzzle: Exclusion 4)”, under setting [2], the “apparent KD of MS2 coat protein” value turned out to be 41.3 nM.

With “CUCGUGCAGCUUUGCUGUACGAGUACAUGAGGAUCACCCAUGUAGGAUAUGGUACGCAAAGCGUGCCAGAAGGACGUGCGUUAG [Mat - Exclusion NG 3 - Mod of JL - D93] (Eterna round: R96, puzzle: Exclusion NG 3)”, the “apparent KD of MS2 coat protein” value by setting is: (input ligand: FMN 200 uM) 78.7 nM; under setting [4], 29.9 nM; (input ligand: none) 33.1 nM.

In the case of “CUCGUGCAGCUUUGCUGUACGAGUACAUGAGGAUCACCCAUGUAGGAUAUGGUACGCUUUGCGUGCCAGAAGGACGUGCGUUAG [JL EXNG3 1.41] (Eterna round: R96, puzzle: Exclusion NG 3)”, the “apparent KD of MS2 coat protein” value is, setting by setting: (input ligand: FMN 200 uM) 78.6 nM; under setting [4], 25.9 nM; (input ligand: none) 28.9 nM.

As to “CUCGUGUGAGGAUAUCAACGUCAAGCGUGAGCGAGACGAGAUGAGAAGGUACAUGAGGAUCACCCAUGUGCUCA [Eternabot (Original) Solution 25] (Eterna round: R97, puzzle: Exclusion 4)”, the “apparent KD of MS2 coat protein” value by setting is: (input ligand: FMN 200 uM) 83.1 nM; (input ligand: none) 20 nM.

Turning to “CUCUGCACGCUGCGGUCCUACAUGAGGAUCACCCAUGUGGUCUGGUGGCGUGGGUCGCCGGACUUGGCUCGUCUUGG [salish99_S_TOV1_R5_047] (Eterna round: R97, puzzle: Sensor, turn-off variant 1)”, the “apparent KD of MS2 coat protein” value was 15.4 nM (input ligand: FMN 200 uM) and 15.8 nM (input ligand: none).

Consider “CUCUUGUUAGGAUAUCAAACCGGCGGCGGAGCCGCCGGUAGUGAGAAGGGACAUGAGGAUCACCCAUGUAAGAA [Isarcedi] (puzzle: Exclusion 4)”, for which the “apparent KD of MS2 coat protein” value under setting [2] was found to be 65.2 nM.

For “CUGAGAUGAGGAUAUACAUGAGGAUCACCCAUGUAAAGUAGCUUGCGUACAGGCAGAUGUAGAAGGCAUUUCGG [Mod of JL 4 - Jieux - Exclusion 3] (Eterna round: R97, puzzle: Exclusion 3)”, the “apparent KD of MS2 coat protein” value by setting is: (input ligand: FMN 200 uM) 44.7 nM; (input ligand: none) 25.3 nM.

As to “CUGAGCAGACGGAGAUCCAACAUGAGGAUCACCCAUGUCUCAAAAGCUUUUUGCUCGUCUUACCCUCCUCUGCUCUC [Ticeisor] (puzzle: Sensor v3, turn-off variant 1)”, the “apparent KD of MS2 coat protein” value is 19.1 nM under setting [1], 40.3 nM under setting [2] and 15.1 nM under setting [3].

“CUGAGCAGACGGAGAUCCAACAUGAGGAUCACCCAUGUCUCAAAAGCUUUUUGCUUGUCUUAUCCUCCUCUGUUCAC [Esqutian] (Eterna round: R96, puzzle: Sensor v3, turn-off variant 1)”: the “apparent KD of MS2 coat protein” value by setting is: (input ligand: FMN 200 uM) 13.6 nM; under setting [4], 222 nM; (input ligand: none) 16.1 nM.

Turning to “CUGAGCAGACGGAGAUCCAACAUGAGGAUCACCCAUGUCUCAAAAGCUUUUUGCUUGUCUUAUCCUCCUCUGUUCAC [Esqutian] (puzzle: Sensor v3, turn-off variant 1)”, the “apparent KD of MS2 coat protein” value under setting [1] is 14 nM, the “apparent KD of MS2 coat protein” value under setting [2] stood at 390 nM and the “apparent KD of MS2 coat protein” value under setting [3] came out at 12.3 nM.

As for “CUGAGCAGACGGAGAUCCAACAUGAGGAUCACCCAUGUCUCAUAAGCUUUUUGCUCAUCUUAUUGUACCUUGGUGCA [Mat - Sensor v3 - turn-off var 1 - JL Mod - D21] (puzzle: Sensor v3, turn-off variant 1)”, the “apparent KD of MS2 coat protein” value runs as follows: under setting [1], 426 nM; under setting [2], 15.6 nM; under setting [3], 290 nM.
